# Entries after “also recorded” stand apart in the source; their conditions may differ.
# B1: RSPO1: R-spondin 1, of a family of ligands that amplify Wnt signals (protein, UniProt Q2MKA7 21-263, looked up)
# R-spondin-1: SRGIKGKRQRRISAEGSQACAKGCELCSEVNGCLKCSPKLFILLERNDIRQVGVCLPSCPPGYFDARNPDMNKCIKCKIEHCEACFSHNFCTKCKEGLYLHKGRCYPACPEGSSAANGTMECSSPAQCEMSEWSPWGPCSKKQQLCGFRRGSEERTRRVLHAPVGDHAACSDTKETRRCTVRRVPCPEGQKRRKGGQGRRENANRNLARKESKEAGAGSRRRKGQQQQQQQGTVGPLTSAGPA
# B2: RSPO2: the Wnt signaling enhancer RSPO2 (R-spondin 2) (protein, UniProt Q6UXX9 22-243, looked up)
# R-spondin-2: QGNRWRRSKRASYVSNPICKGCLSCSKDNGCSRCQQKLFFFLRREGMRQYGECLHSCPSGYYGHRAPDMNRCARCRIENCDSCFSKDFCTKCKVGFYLHRGRCFDECPDGFAPLEETMECVEGCEVGHWSEWGTCSRNNRTCGFKWGLETRTRQIVKKPVKDTILCPTIAESRRCKMTMRHCPGGKRTPKAKEKRNKKKKRKLIERAQEQHSVFLATDRANQ
# B3: SWAP4: FZD4-mono-specific Wnt agonist; anti-FZD antibody with LRP6 binder; heavy/light chains SEQ ID NO: 9 and 10 (antibody)
# heavy: EVQLVESGGGLVQPGGSLRLSCAASGFTFTSYYISWVRQAPGKGLEWVAEISPYSGSTYYADSVKGRFTISADTSKNTAYLQMNSLRAEDTAVYYCALRARPPIRLHPRGSVMDYWGQGTLVTVSSGGGGSGGGGSGGGGSEVQLVESGGGLVQPGGSLRLSCAASGFNISYYYIHWVRQAPGKGLEWLASIYPSSGYTYYADSVKGRFTISADTSKNTAYLQMNSLRAEDTAVYYCARSSFYWAMDYWGQGTLVTVSSASTKGPSVFPLAPSSKSTSGGTAALGCLVKDYFPEPVTVSWNSGALTSGVHTFPAVLQSSGLYSLSSVVTVPSSSLGTQTYICNVNHKPSNTKVDKKVEPKSCDKTHTCPPCPAPEAAGGPSVFLFPPKPKDTLMISRTPEVTCVVVDVSHEDPEVKFNWYVDGVEVHNAKTKPREEQYNSTYRVVSVLTVLHQDWLNGKEYKCKVSNKALGAPIEKTISKAKGQPREPQVYTLPPSREEMTKNQVSLTCLVKGFYPSDIAVEWESNGQPENNYKTTPPVLDSDGSFFLYSKLTVDKSRWQQGNVFSCSVMHEALHNHYTQKSLSLSPGK
# light: DIQMTQSPSSLSASVGDRVTITCRASQDVSTAVAWYQQKPGKAPKLLIYSASFLYSGVPSRFSGSGSGTDFTLTISSLQPEDFATYYCQQSYTTPPTFGQGTKVEIKGGGGSGGGGSGGGGSDIQMTQSPSSLSASVGDRVTITCRASQSVSSAVAWYQQKPGKAPKLLIYSASSLYSGVPSRFSGSRSGTDFTLTISSLQPEDFATYYCQQSYAAYLFTFGQGTKVEIKRTVAAPSVFIFPPSDEQLKSGTASVVCLLNNFYPREAKVQWKVDNALQSGNSQESVTEQDSKDSTYSLSSTLTLSKADYEKHKVYACEVTHQGLSSPVTKSFNRGEC
# B4: SWAP5: FZD-1,2,5,7,8-specific Wnt agonist; anti-FZD antibody with LRP6 VHH on light chain N-terminus; SEQ ID NO: 1 and 2 (protein)
# chain 1: EVQLVQSGAEVKKPGASVKVSCKASGYTFTSYGISWVRQAPGQGLEWMGWISAYNGNTNYAQKLQGRVTMTTDTSTSTAYMELRSLRSDDTAVYYCASSKEKATYYYGMDVWGQGTTVTVSSASTKGPSVFPLAPSSKSTSGGTAALGCLVKDYFPEPVTVSWNSGALTSGVHTFPAVLQSSGLYSLSSVVTVPSSSLGTQTYICNVNHKPSNTKVDKKVEPKSCDKTHTCPPCPAPEAAGGPSVFLFPPKPKDTLMISRTPEVTCVVVDVSHEDPEVKFNWYVDGVEVHNAKTKPREEQYNSTYRVVSVLTVLHQDWLNGKEYKCKVSNKALGAPIEKTISKAKGQPREPQVYTLPPSREEMTKNQVSLTCLVKGFYPSDIAVEWESNGQPENNYKTTPPVLDSDGSFFLYSKLTVDKSRWQQGNVFSCSVMHEALHNHYTQKSLSLSPGK
# chain 2: DVQLVESGGGLVQAGGSLRLACAGSGRIFAIYDIAWYRHPPGNQRELVAMIRPVVTEIDYADSVKGRFTISRNNAMKTVYLQMNNLKPEDTAVYYCNAKRPWGSRDEYWGQGTQVTVSSGSGSGQAVVLQEPSLSVSPGGTVTLTCGLSSGSVSTNYYPSWYQQTPGQAPRTLIYYTNTRSSDVPERFSGSIVGNKAALTITGAQPDDESVYFCLLYLGRGIWVFGGGTKLTVLGQPKAAPSVTLFPPSSEELQANKATLVCLISDFYPGAVTVAWKADSSPVKAGVETTTPSKQSNNKYAASSYLSLTPEQWKSHRSYSCQVTHEGSTVEKTVAPTECS
# B5: SWAP6: FZD1,2,7-specific Wnt agonist; anti-FZD antibody with LRP6 VHH on light chain N-terminus; SEQ ID NO: 12 and 11 (protein)
# chain 1: QVQLQQWGAGLLKPSETLSLTCAVSGASFSGHYWTWIRQPPGKGLEWIGEIDHTGSTNYEPSLRSRVTISVDTSKNQFSLNLKSVTAADTAVYYCARGGQGGYDWGHYHGLDVWGQGTTVTVSSASTKGPSVFPLAPSSKSTSGGTAALGCLVKDYFPEPVTVSWNSGALTSGVHTFPAVLQSSGLYSLSSVVTVPSSSLGTQTYICNVNHKPSNTKVDKKVEPKSCDKTHTCPPCPAPEAAGGPSVFLFPPKPKDTLMISRTPEVTCVVVDVSHEDPEVKFNWYVDGVEVHNAKTKPREEQYNSTYRVVSVLTVLHQDWLNGKEYKCKVSNKALGAPIEKTISKAKGQPREPQVYTLPPSREEMTKNQVSLTCLVKGFYPSDIAVEWESNGQPENNYKTTPPVLDSDGSFFLYSKLTVDKSRWQQGNVFSCSVMHEALHNHYTQKSLSLSPGK
# chain 2: DVQLVESGGGLVQAGGSLRLACAGSGRIFAIYDIAWYRHPPGNQRELVAMIRPVVTEIDYADSVKGRFTISRNNAMKTVYLQMNNLKPEDTAVYYCNAKRPWGSRDEYWGQGTQVTVSSGSGSGSYVLTQPPSVSVSPGQTASITCSGDKVGHKYASWYQQKPGQSPVLVIYEDSQRPSGIPVRFSGSNSGNTATLTISGTQAMDEADYYCQAWDSSTDVVFGGGTKLTVLGQPKAAPSVTLFPPSSEELQANKATLVCLISDFYPGAVTVAWKADSSPVKAGVETTTPSKQSNNKYAASSYLSLTPEQWKSHRSYSCQVTHEGSTVEKTVAPTECS
# What was measured:
# human AT2 cell organoid [1] = experiment: Human AT2 cell organoid growth, CellTiter Glo assay; format: cell-based; details: for human AT2 culture growth: RSPO alone, Wnt signaling inhibitor C59 present
# Description: For ex vivo studies, 3D organoid cultures (see, e.g., Zacharias, W. et al. (2018) Nature 555:251-257 and Barkauskas et al. (2017) Development 144:986-997) were constructed by combining primary human lung fibroblasts from healthy, pulmonary fibrosis, or COPD patients with alveolar epithelial cells (AT2 and AEP cells) from patients. Organoids were cultured in SAGM medium with growth factor free Matrigel. The Wnt antagonist and agonist were added in a sequential or concurrent manner to determine the effect on the fibroblast/myofibroblast proliferation, matrix production, alveolar epithelial cell proliferation and AT1/AT2 cell fate trans-differentiation. Alveolar organoids can also be cultured directly from human distal lung cells including purified AT2 cells (Kobayashi et al., (2020) supra).
# In all of the AT2 cell organoid experiments, the Wnt signaling inhibitor, C59, was used to prevent endogenous secretion of Wnt ligands. […] AT2 cell organoid growth was assessed with the CellTiter Glo assay.
# [2] = tested on: acute bleomycin mouse model; experiment: Bleomycin-induced acute lung injury (fibrosis) mouse model; format: in vivo; details: for percentage of lung area affected by fibrosis / fibrosis score (Modified Ashcroft): agent alone, dosed four times between week 1 and week 3, vs anti-GFP; for percentage of lung area affected by fibrosis: FIGS. 10-11; for fibrosis score (Modified Ashcroft): FIGS. 10-12
# Text: The acute lung injury (single bleomycin treatment; FIG. 1) and chronic intermittent/low dose bleomycin mouse models (FIG. 2) were used to determine the therapeutic effects of Wnt antagonist and agonist (administered concurrently or sequentially or individually) in combination with or without anti-fibrotic drugs (e.g., pirfenidone and nintedanib) to assess effects on anti-fibrotic and improved respiratory functions (see, e.g., Degryse, A. et al. (2010) Am J Physiol Lung Cell Mol Physiol. 299:442-52). Improvement of fibrosis was observed upon treatment with a WNT agonist, SWAP5 (see, e.g., FIG. 7, FIG. 10). Specifically, bleomycin was administered intratracheally to the mice at day 0, and animals were treated twice weekly with an agonist approach—combination of SWAP5 (FZD1,2,5,7,8 multi-FZD-specific SWAP) and RSPO2 (combo)—for two weeks starting at day 7 until termination at day 21. […] Improvement of fibrosis was also observed upon treatment with a Wnt agonist or the Wnt signaling enhancer RSPO2 alone (FIG. 10).
# human AT2 cell organoid [3] = experiment: Human AT2 organoid size (diameter, microscopy); format: cell-based; details: in the absence of RSPO; C59 present; FIG. 6
# [4] = combination of SWAP5 and RSPO2 (combo), twice weekly day 7 to day 21, FIG. 7
Molecule,human AT2 culture growth (human AT2 cell organoid [1]),percentage of lung area affected by fibrosis [2],fibrosis score (Modified Ashcroft) [2],other results
B1,did not enhance human AT2 culture growth,–,–,–
B2,did not enhance human AT2 culture growth,reduced the fibrosis score and percentage of lung area affected; also recorded: reduce the area of the lung that is fibrotic,reduced the fibrosis score; also recorded: lower the severity of fibrosis,–
B3,–,–,–,human AT2 cell organoid growth as organoid size (diameter) (human AT2 cell organoid [3]): expand AT2 organoids; self-renewal and expansion of human AT2 cells (human AT2 cell organoid [1]; summary of organoid results): promotes the self-renewal and expansion of human AT2 cells
B4,–,reduced the fibrosis score and percentage of lung area affected; also recorded: reduce the area of the lung that is fibrotic,reduced the fibrosis score; also recorded: lower the severity of fibrosis,"area (percent) of lung affected by fibrosis [2, 4]: reduction in the degree of fibrosis severity and the area of the lung affected by fibrosis; also recorded: reduce the area of the lung that is fibrotic; fibrosis severity (fibrosis score) [2, 4]: reduction in the degree of fibrosis severity; also recorded: lower the severity of fibrosis"
B5,–,–,caused a trend of reduction in the extent of fibrosis,–

# Reference: patent US20240391991A1, “MODULATION OF WNT SIGNALLING IN PULMONARY DISORDERS” (Surrozen Operating, Inc., priority 2021, published 2024)
